Experimental data as given in article PMC2724299 (Nucleic Acids Research, 2009).

Biological target: the molecule itself
Test: SEC

B1: PAE-EndA linker variant LPEI (6×His-PAE0789 fused through -Leu-Pro-Glu-Ile- to PAE2269) (enzyme, Pyrobaculum aerophilum)
chain: MDVLQEQVFKDLKSRGFKIIEQLDDKIFIAEKKERYLFYVMVEGVEVTIQTLLSVINMGETLSMPVVLALVSNDGTVTYYYVRKIRLPRNIYAEAVLPEIMIGYLRGLAVIVEDVEFARRLYKEGFYGRFLGYDKVKRDEVEKINAPLILGLYEALYLAEKGRLKVMGEDGREVAPEELAALGRERMRNFDEIYKIYKYFRDLGYVVKSGLKFGALFSVYEKGPGIDHAPMVVVFLEPDKGISATDITRGGRLSHSVRKTWTLATVLRQTGEVVLLGFGWARL
**Q.** B1 was tested. Which “stoichiometry N” value did it give?
**A.** Its value is 2.
